Data published in the nanobody polyreactivity screen of Harvey et al. (2022).

Assay: yeast display, Sf9 membrane polyspecificity reagent, FACS + sequencing; frameworks hold sequencing errors
How it was run: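 Sorting gates, low and high (top ~1%), were placed on anti-HA fluorescence to track expression and on streptavidin fluorescence to track reagent binding. A clone's polyreactivity label is taken from the gate it came out of. The reagent was 10% biotinylated, detergent-solubilized Sf9 membrane, applied for 1 hour at 4 °C to galactose-induced yeast display cells.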

Sequence	polyreactivity (PSR sort gate)
QVQLLESGGGLVQAGGSLRLTCAASGRIFAYYAMAWYRQAPGKERELVAAITSGGSTYYADSVKGRFTISRDNAKNTVYLQMNILKPEDTAVYYCNAGYGQWSRGHWRLSSVPYYYWGQGTQVTVSS	high polyreactivity
QVQLVESGGGIVQAGCSLRIICAASGYTFGYYAMGSYRQAPGNERQFVAAITIDARTTYADSVKGRFTISRDKAKKTFYLQINSLKADDTAFYYCARGYFPYGYPWRWGYDRFDYWGQGTLVTVSS	low polyreactivity
QVQLVESGGGLVQSGASLRLSCAASGSIFDSYTMGWYRQAPGKEREWVAAISWSGGRTYYADSVKGRFTISRDNAKNTVYLQMNTLKPEDTAVYYCAARNVWKYLFGYDYWGQGTQVTVSS	high polyreactivity
QVQLVESGGGLVQAGGSLRLSCAASGGTFTYYAMGWYRQAPGKVRELVAAISWSGGSTYYADSVKGRFTISRDIAKNSVYLQMNSLKPEDSAVYYCAADYTGHFYYYWGQGTQVTVSS	low polyreactivity
QVQLVESGGGLVQAGGSLRLSCAASGIIFASYPMGWYRQAPGKESELVADINVTGGTTYYADTVKGRFTISRDNAKNTVYLQMNSLKPEDTAVYYCAARQSIFYSWTGVEYYYWGQGTQVTVSS	low polyreactivity
QVQLVESGGGIVQAGGSLRISSSASGRIITAYAMGWYRQAPGKERELVAAITRSTTYYADSVKGRFTISRDNAKFSVDLQLHSLKPDDTAVFYCAADYRGTWYGYDYWGQGTHVTVSS	high polyreactivity
QVQLVESGGGLVQAGGSLRLSCAASGSTFGWYVMGWYRQAPGKEREYVASISGSGGSTYYADSVKGRFTISRDNAKNTVYLQMNSLKPEDTAVYYCAAETGWYDDWSIYDYWGHGTQVTVSS	low polyreactivity
QVQLVESGGGLVQAGGSLRLSCAASGRTFVYNAMGWYRQAPGKERELVAAISSDGASTYYADSVKGRFTISRDNAKNTVYLQMNSLKPEDTAVYYCAADFSYYSYEHYYWGQGTKVTVSS	low polyreactivity
QVQLVESGGGLVQAGGSLRLSCAASGFIFRKYVMGWYRQAPGKERELVAAITRSGTSTYYADSVKGRFTISRDNAKNTVYLQMNSLKPEDNAVYYCNVGSDGWYYWGQGTQVTVSS	low polyreactivity
QVQLVESGGGLVQAGGSLRLSCAASGITFYRYVMGWYRQAPGKERELVAAITSRGGSTSYADSVKGRFTISRDNAKNTVYLQMNSLKPEDTAVYNCAADLSGWGRDARGAYDYWGQGPQVTVSS	high polyreactivity
QFQLVESGGVLVQAGGILRLSCAASGSIFIDNAMGWYRQEPGKERDLVAAITVRGASTNYADSVKGRFTISRDNAKNTVYLQMNSLKPEDTAVYYCNAVGLRSPWHQDYLIRYDYWGQGTQVTVSS	low polyreactivity
QVQLVESGGGLVQAVGSLRLSCAASGSTFLLNAMGWYRQAPGKEREFVAAITGNAGSTYYADSVKGRFTISRDNAKNTVYLQMNSLKPEDTAVYYCAAALPGYDGDYWGQGTQVTVSS	low polyreactivity
QVQLVESGGGLVQAGGSLRLSSAASGSIFYDNAMAGYRQAPGKERELVAVITVSGESTYYADSVKGRFTISRDNAKTTVYLQMNSLKPEDTAVYYCNTDAISGSHFWRYITFGYLDDYWGQGTQVTVSS	low polyreactivity
QVQLVESGGGLVQAGGSLRLSCAASGRIFEYYAMGWYRQAPGKERELVAAINSSGGSTYYADSVKGRFTISRDNAKNTVYLQMNSLKPEDTAVYYCAARSYASPGWRYEYWGQGTQVTVSS	low polyreactivity
QVQLVESGGGLVQAGGSLRLSCAASGSIFWVYAMGWYRPAPGKERELVAGISSGGSTNYADSVKGRCTISRDTAKKTVYLQMNSLKPEDTAVYYCAAVIRTVRERYGYWGQGTQVTVSS	high polyreactivity
QVQLVESGGGLVQAGGSLRLSCAASGFIFSINAMGWYRQAPGKERELVADIDTGGSTNYADSVKGRFTISRDNAKNTVYLQMNSLKPEDTAVYYCAAQWYQYPSYISYFTSYDYWGQGTQVTVSS	low polyreactivity

Sequence	polyreactivity (PSR sort gate)
QVQLVESGGGLVQAGGSLRLSCAASGRTFGGYTMGWYRQAPGKEREFVAAITWSTGGSTYYADSVKGRFTISRDNAKNTVYLQMNSLKPEDTAVYYCAKDLYLHTYYAYPYRFGSGYYWGLGTQVTVSS	low polyreactivity
QVQLVESGGGLVQAGGSLRLSCAASGLPFYQYAMGWYRQAPGKERELVAGISSGGSTKYADSVKGRFTISRDNAKNTVYFQMNSLKPEDTAVYYCAARFYAFRKGYYYWGQGTQVTVSS	high polyreactivity
QVQLKERGGGLVQAGGSLRLSCAAIGPISRRSTMGWYRQAPGKERELVTDITRGTNTNYADSVKGRFTISRDNAKNTEYLQMNSLKPEDTAVYYCEAYGVLKPSRGDAVFHRYWGQGTQVTVSS	low polyreactivity
QVQLVESGGGLVQAGGSLRLSCAASGSIFGDYVMGWYRQAPGNERELVAAINRGGSTYYADSVKGRFSISRDNAKNTVYLQMNSLTAEDTAVYFCAAGYPSWYYCYPYDSWGQGTQVTVSS	low polyreactivity
QVQLVESGGGLVQAGGSLRLSCAASGRIFYTYAMGRYRQAPGKERELVAVISSGGSTNYADSVKGRFTISRDTAKNNVYLQMNSLKPEDTAVYYCNADTGAADYFDFDYWGQGTQVTVSS	low polyreactivity
QVQLVESGGGLVQEGGSLRLSCAASGFTFPYYAMGWYRQAPGKERELVAAISNGGSNTYYADSVKGRFTISRDNAKNTVYVQMNSLKPEDTAVYYCAARVGGSYDYWGQGTQVTVSS	high polyreactivity
QVQLVESGGGLVQAGGSLRLSCAASGYIFITYAMGWYRQAPGKERELVAAISRRGGRTYYADSVKGRFTISRDNAKNTVYLQMNSLKPEDTAVYYCAADPATSVYGGLNYWGQGTQVTVSS	high polyreactivity
QVQLVESGGGLVQAGGSLRLSCAASGGTFGSNAMGWYRQAPGKERELLAAISFSDGITYYADSVKGRFTISRDNAKNTVYLQMNSLKPEDSAVYYCAAELGTSRGGDTMEYWGQGTKVTVSS	high polyreactivity
QVQLVESGGGLVQAGGSLRLSCAASGYIFEVNTMGWYIQAPGKERELVAAITSGGTTYYADSVKGRFTISRDNAKNTVYLQMNSLKPDDTAVYYCAALWSRRRSRPRFDYWGQGTQVTVSS	high polyreactivity
QVQLVESGGGLVQAGGSLRLSCAASGITFYPYVMGWYRQAPGKERELVAVITWSGGRTYYADSVKGRFTISRDNAKNTVYLQMNSLKPEDTAVYYCAADPLSGYDYWGQGTQVTVSS	low polyreactivity
QVQLVESGGGLVQAGGSLRLTCAASGRTFGYYTMGWYRQAPGKERELVATISSDGTTNYADSVKGRFTISRDNAKNTVYLQMNSLKPEDTAVYYCNADFRLQYYYRIYDYWGQGTQVTVSS	low polyreactivity
QVQLVESGGGLVQAGGSLRLSCAASGGTFSTSAMGWYRQAPGKERELVAAISLSGVRTYYADSVKGRFTISRDNAKNTVYLQMNSLKAEVTAVDYCATRPYSPWRLYYWGQGTQVTGSS	high polyreactivity
QVQLVESGGGLVQAGGSLRLSCAASGLTFYYYAMGWYRQAPGKERELVAAISIGGSTDYADSVKGRFTISRDNAKNTVYLQMNSLKPEDTAVYYCNVDDNSEYDYWGQVTQVTVSS	low polyreactivity
QVQLVESGGGLVQAGGSLRLSCAASGSIFVYYVMGWYRQAPGKERELVAAISSGGRTYYADSVKGRFTISRDNAKNTVYLQMNSLKPEDTAVYYCAAVWYWTQDYDYWGQGTQVTVSS	low polyreactivity
QVQLEESGGGLVQAGGSLRLSCAASGSTFQRYAIGWYRQAPGKERELVAAISYRAGRRYYADSVKGRFTISRDNAKNTVYLQMNSLKPEDTAVYYCAAKNQGYQYDYWGQGTQVTVSS	high polyreactivity
